B1: Tuftelin-interacting protein 11 (Homo sapiens), Q9UBB9 (parent)
chain: MSLSHLYRDGEGRIDDDDDERENFEITDWDLQNEFNPNRQRHWQTKEEATYGVWAERDSDDERPSFGGKRARDYSAPVNFISAGLKKGAAEEAELEDSDDEEKPVKQDDFPKDFGPRKLKTGGNFKPSQKGFAGGTKSFMDFGSWERHTKGIGQKLLQKMGYVPGRGLGKNAQGIINPIEAKQRKGKGAVGAYGSERTTQSMQDFPVVDSEEEAEEEFQKELSQWRKDPSGSKKKPKYSYKTVEELKAKGRISKKLTAPQKELSQVKVIDMTGREQKVYYSYSQISHKHNVPDDGLPLQSQQLPQSGKEAKAPGFALPELEHNLQLLIDLTEQEIIQNDRQLQYERDMVVNLFHELEKMTEVLDHEERVISNLSKVLEMVEECERRMQPDCSNPLTLDECARIFETLQDKYYEEYRMSDRVDLAVAIVYPLMKEYFKEWDPLKDCTYGTEIISKWKSLLENDQLLSHGGQDLSADAFHRLIWEVWMPFVRNIVTQWQPRNCDPMVDFLDSWVHIIPVWILDNILDQLIFPKLQKEVENWNPLTDTVPIHSWIHPWLPLMQARLEPLYSPIRSKLSSALQKWHPSDSSAKLILQPWKDVFTPGSWEAFMVKNIVPKLGMCLGELVINPHQQHMDAFYWVIDWEGMISVSSLVGLLEKHFFPKWLQVLCSWLSNSPNYEEITKWYLGWKSMFSDQVLAHPSVKDKFNEALDIMNRAVSSNVGAYMQPGARENIAYLTHTERRKDFQYEAMQERREAENMAQRGIGVAASSVPMNFKDLIETKAEEHNIVFMPVIGKRHEGKQLYTFGRIVIYIDRGVVFVQGEKTWVPTSLQSLIDMAK
partner: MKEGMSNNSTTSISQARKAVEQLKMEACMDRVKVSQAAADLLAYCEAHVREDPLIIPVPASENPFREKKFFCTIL
B2: MIF4G domain-containing protein (Homo sapiens), A9UHW6 (parent)
chain: MGEPSREEYKIQSFDAETQQLLKTALKDPGAVDLEKVANVIVDHSLQDCVFSKEAGRMCYAIIQAESKQAGQSVFRRGLLNRLQQEYQAREQLRARSLQGWVCYVTFICNIFDYLRVNNMPMMALVNPVYDCLFRLAQPDSLSKEEEVDCLVLQLHRVGEQLEKMNGQRMDELFVLIRDGFLLPTGLSSLAQLLLLEIIEFRAAGWKTTPAAHKYYYSEVSD
partner: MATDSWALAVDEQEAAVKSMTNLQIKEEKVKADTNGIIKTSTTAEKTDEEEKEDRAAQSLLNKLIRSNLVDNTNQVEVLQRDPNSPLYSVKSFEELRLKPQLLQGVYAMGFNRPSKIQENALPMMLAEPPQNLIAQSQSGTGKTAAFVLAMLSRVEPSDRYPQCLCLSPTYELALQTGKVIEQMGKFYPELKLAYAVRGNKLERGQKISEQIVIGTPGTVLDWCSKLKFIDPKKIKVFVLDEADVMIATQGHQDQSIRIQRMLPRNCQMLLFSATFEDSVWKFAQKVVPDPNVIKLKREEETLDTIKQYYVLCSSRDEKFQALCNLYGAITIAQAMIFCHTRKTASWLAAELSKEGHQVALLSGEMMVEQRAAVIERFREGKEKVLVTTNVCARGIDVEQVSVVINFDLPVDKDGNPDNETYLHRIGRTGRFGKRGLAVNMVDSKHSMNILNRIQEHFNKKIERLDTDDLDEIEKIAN
B3: Nuclear receptor-interacting protein 1 (Homo sapiens), P48552 (parent)
chain: MTHGEELGSDVHQDSIVLTYLEGLLMHQAAGGSGTAVDKKSAGHNEEDQNFNISGSAFPTCQSNGPVLNTHTYQGSGMLHLKKARLLQSSEDWNAAKRKRLSDSIMNLNVKKEALLAGMVDSVPKGKQDSTLLASLLQSFSSRLQTVALSQQIRQSLKEQGYALSHDSLKVEKDLRCYGVASSHLKTLLKKSKVKDQKPDTNLPDVTKNLIRDRFAESPHHVGQSGTKVMSEPLSCAARLQAVASMVEKRASPATSPKPSVACSQLALLLSSEAHLQQYSREHALKTQNANQAASERLAAMARLQENGQKDVGSYQLPKGMSSHLNGQARTSSSKLMASKSSATVFQNPMGIIPSSPKNAGYKNSLERNNIKQAANNSLLLHLLKSQTIPKPMNGHSHSERGSIFEESSTPTTIDEYSDNNPSFTDDSSGDESSYSNCVPIDLSCKHRTEKSESDQPVSLDNFTQSLLNTWDPKVPDVDIKEDQDTSKNSKLNSHQKVTLLQLLLGHKNEENVEKNTSPQGVHNDVSKFNTQNYARTSVIESPSTNRTTPVSTPPLLTSSKAGSPINLSQHSLVIKWNSPPYVCSTQSEKLTNTASNHSMDLTKSKDPPGEKPAQNEGAQNSATFSASKLLQNLAQCGMQSSMSVEEQRPSKQLLTGNTDKPIGMIDRLNSPLLSNKTNAVEENKAFSSQPTGPEPGLSGSEIENLLERRTVLQLLLGNPNKGKSEKKEKTPLRDESTQEHSERALSEQILMVKIKSEPCDDLQIPNTNVHLSHDAKSAPFLGMAPAVQRSAPALPVSEDFKSEPVSPQDFSFSKNGLLSRLLRQNQDSYLADDSDRSHRNNEMALLESKNLCMVPKKRKLYTEPLENPFKKMKNNIVDAANNHSAPEVLYGSLLNQEELKFSRNDLEFKYPAGHGSASESEHRSWARESKSFNVLKQLLLSENCVRDLSPHRSNSVADSKKKGHKNNVTNSKPEFSISSLNGLMYSSTQPSSCMDNRTFSYPGVVKTPVSPTFPEHLGCAGSRPESGLLNGCSMPSEKGPIKWVITDAEKNEYEKDSPRLTKTNPILYYMLQKGGNSVTSRETQDKDIWREASSAESVSQVTAKEELLPTAETKASFFNLRSPYNSHMGNNASRPHSANGEVYGLLGSVLTIKKESE
partner: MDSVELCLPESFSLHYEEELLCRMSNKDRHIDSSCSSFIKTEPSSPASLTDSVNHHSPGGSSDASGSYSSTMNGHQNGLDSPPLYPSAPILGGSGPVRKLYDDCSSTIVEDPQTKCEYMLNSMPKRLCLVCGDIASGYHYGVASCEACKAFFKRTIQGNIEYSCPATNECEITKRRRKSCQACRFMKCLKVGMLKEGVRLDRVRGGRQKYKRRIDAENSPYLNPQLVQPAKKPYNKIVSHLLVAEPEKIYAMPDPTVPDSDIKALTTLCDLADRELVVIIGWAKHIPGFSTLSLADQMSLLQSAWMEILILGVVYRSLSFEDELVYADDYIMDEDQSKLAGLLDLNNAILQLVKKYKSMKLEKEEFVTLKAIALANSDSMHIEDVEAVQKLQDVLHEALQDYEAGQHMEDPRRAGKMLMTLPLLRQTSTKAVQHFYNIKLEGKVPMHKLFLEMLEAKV
B4: Fibronectin type III and SPRY domain-containing protein 2 (Homo sapiens), A1L4K1 (parent)
chain: MEEESGEELGLDRSTPKDFHFYHMDLYDSEDRLHLFPEENTRMRKVVQAEMANESRGAGDGKAQRDLQEEVDELVHLYGLEDDHELGDEFVDENIPRTGVSEYPPYMMKRRDPAREQRDWRLSGEAAEAEDLGFGGWGSAGQCQDLREAYRYTHGRASEEYECYVIPEEEDEEEAADVFCVTCKTPIRAFQKVFDEHKEHEVIPLNEALESAKDEIHKNMYKLEKQIIEMENFANHLEEVFITVEENFGKQEQNFESHYNEILETLAQKYEEKIQALGEKKKEKLEALYGQLVSCGENLDTCKELMETIEEMCHEEKVDFIKDAVAMADRLGKFLKTKTDVEISAQPEFEDQTLDFSDVEQLMGSINTIPAPSAPVINPQVPNSATGSSVRVCWSLYSDDTVESYQLSYRPVQDSSPGTDQAEFTVTVKETYCSVTNLVPNTQYEFWVTAHNRAGPSPSSERAVYMTAPSPPIIKTKEIRSCEEAVLICWESGNLNPVDSYTVELTQAESPEASGVTESVVGIPTCESVVQLQPGRSYIIYVRALNMGGPSVRSEPATVHTIGSYFRLNKDTCHPWLTISEDGLTAVRSERRTPARELSPSDTHFTRCVAVMGNLIPVRGHHYWEVEVDEHLDYRVGVAFADVRKQEDLGANCLSWCMRHTFASSRHKYEFLHNRTTPDIRITVPPKKIGILLDYEHSKLSFFNVDLSQHLYTFSCQLHEFVHPCFSLEKPGCLKVHNGISMPKHVTFY
partner: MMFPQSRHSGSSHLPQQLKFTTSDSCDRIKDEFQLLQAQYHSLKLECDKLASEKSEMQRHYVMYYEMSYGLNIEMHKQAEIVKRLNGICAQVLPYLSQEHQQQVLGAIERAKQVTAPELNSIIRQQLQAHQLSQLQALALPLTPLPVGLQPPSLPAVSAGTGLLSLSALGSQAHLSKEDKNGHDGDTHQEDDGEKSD

In one assay the parent is B1. Conditions: with gbg4_human GNG4, P50150.
As for S688L, the “effect of a mutation on the interaction” value is given as “with no effect”.
As to R8Q, the “effect of a mutation on the interaction” value was “with no effect”.

Variants of B2 are the subject of the next assay. The following applies: with dd19a_human DDX19A.
Turning to E160K, the “effect of a mutation on the interaction” value is listed as “with no effect”.

Variants of B3 are the subject of a further assay. The following applies: with err3_human ESRRG.
Consider K385I, for which the “effect of a mutation on the interaction” value is on record as “with no effect”.

In a further assay the parent is B4. The following applies: with tle5_human TLE5, Q08117.
Consider E720K, for which the “effect of a mutation on the interaction” value was “with no effect”.
Regarding K333T, the “effect of a mutation on the interaction” value is listed as “with no effect”.
